Source: the supplement of paper PMC11908140

B1: library; numbered along this chain (parent)
chain: MRKPRAAVGSGHRKQAASQEGRQKHAKNNSQAKPSACDGLARQPEEVVLQASVSSYHLFRDVAEVTAFRGSLLSWYDQEKRDLPWRRRAEDEMDLDRRAYAVWVSEVMLQQTQVATVINYYTGWMQKWPTLQDLASASLEEVNQLWAGLGYYSRGRRLQEGARKVVEELGGHMPRTAETLQQLLPGVGRYTAGAIASIAFGQATGVVDGNVARVLCRVRAIGADPSSTLVSQQLWGLAQQLVDPARPGDFNQAAMELGATVCTPQRPLCSQCPVESLCRARQRVEQEQLLASGSLSGSPDVEECAPNTGQCHLCLPPSEPWDQTLGVVNFPRKASRKPPREESSATCVLEQPGALGAQILLVQRPNSGLLAGLWEFPSVTWEPSEQLQRKALLQELQRWAGPLPATHLRHLGEVVHTFSHIKLTYQVYGLALEGQTPVTTVPPGARWLTQEEFHTAAVSTAMKKVFRVYQGQQPGTCMGSKRSQVSSPCSRKKPRMGQQVLDNFFRSHISTDAHSLNSAAQ

Variants of: B1
Assay: 8OG:A repair function score (normalized; synonymous = 0, nonsense = -1) (normalized log-likelihood score); higher = more repair activity (WT-like)
Conditions: with 8OG:A DNA repair reporter (GFP) in HEK-293 MUTYH KO cells
Outline: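 With 10 pg/ml doxycycline, MUTYH knockout HEK-293 cells carrying lentiviral MUTYH cDNA NNN codon-scan libraries were co-transfected with mCherry and an 8OG:A GFP repair reporter. Viable mCherry+ cells were sorted into GFP+ (repair) and GFP− bins at 72 h, three replicates per tile, and tile amplicons were sequenced. Per-tile Rosace fitness scores were then normalized into a repair function score anchored on synonymous and nonsense distributions. Medians were fixed at 0 for synonymous and -1 for nonsense, excluding variants under 300 counts per million at the start.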

Variant	8OG:A repair function score
S231N	0.155
R246Y	-0.517
Q111Y	-1.17
Q111N	-0.242
S52L	0.00142
A137E	-0.16
G479D	0.0194
R2K	0.125
R154N	-0.885
G471D	0.0172
G471R	0.00545
A305Q	-0.0168
A305C	-0.0298
V274E	-0.423
V65P	-0.196
V117L	-0.727
A220F	-0.676
R189F	-0.222
K80T	-0.469
H57S	-0.711
H57R	-0.473
H57T	-0.765
F418R	-0.722
F418S	-0.474

Variant	8OG:A repair function score
F418G	-0.636
Q363R	0.0264
M255F	-0.873
S71Y	-0.0584
L237C	-0.474
G236K	0.114
G236P	-0.455
L180K	-0.838
L180H	-1.24
S276W	-0.0968
V348W	-1.28
L131Y	-0.228
P317A	-0.0112
L387S	0.154
T324A	-0.0315
T324R	0.0185
F505N	0.0264
E160S	-0.0339
E160Q	0.018
G193P	-0.524
T191M	-0.127
P338K	0.0337
G368N	-0.146
L396G	-0.426

Variant	8OG:A repair function score
L396F	-0.431
E168W	-0.201
A99T	-0.459
A162P	-1.19
Y425P	-0.934
P320F	-0.0659
D208W	-1.02
H312Q	-0.0663
S270L	-0.0471
M108H	-1.36
I421V	-0.0973
E46K	-0.0383
T417D	-0.0817
N503V	-0.0118
I118R	0.0138
R87Y	-0.052
R87C	-0.0638
Y152D	-1.08
Y152S	-1.19
Y152N	-0.779
V328S	-0.00939
V328W	-0.0588
T308L	-0.0193
L58A	0.00209

Variant	8OG:A repair function score
T130A	-0.214
A223S	-0.27
A223L	-0.498
L432D	-0.57
L432G	-0.302
S54R	-0.0174
A196R	-0.93
H416T	0.0616
Q288Y	-0.0255
Q288S	-0.0113
V468K	-0.0375
Q233T	0.244
A192C	-0.572
A192W	-1.16
Q202I	-0.0774
G326M	-0.634
D512Y	-0.0038
P34D	0.128
Q50T	-0.147
Q50K	0.0673
P404T	-0.55
P404Y	-0.119
V211S	-0.531
P306H	-0.0537

Variant	8OG:A repair function score
P306D	-0.0656
T112D	-1.3
Q43D	0.0131
E178Y	0.00398
E178N	0.0803
H514R	-0.0107
R467C	-0.137
R467A	0.0232
E303T	-0.0474
S490Y	-0.00381
G434C	0.163
T476G	-0.0416
V62M	-0.00891
V62K	0.00655
V62C	-0.00556
R156F	-0.3
R156Q	-0.136
T122M	-0.388
T122K	-0.158
I198Y	-0.792
N210G	-0.962
E395Q	-0.276
Q351D	-0.266
A513Y	-0.00892

Variant	8OG:A repair function score
Q472A	0.0214
Q472D	0.0112
Q78N	-0.105
L501Y	-0.0132
Q394D	0.0938
N143S	-0.133
R157P	-1.11
R157F	-0.0928
C216A	-0.252
V102Q	-0.275
D77F	-0.0355
D77N	-0.122
A519R	0.013
A354Q	-0.0822
A354E	-0.0284
W124M	-1.62
W124L	-0.378
A520P	0.0147
L290P	-0.0572
R163E	-0.375
R219D	-0.946
R219Y	-0.556
D82R	-0.0624
D82G	-0.0955

Variant	8OG:A repair function score
R495I	-0.0255
P443L	0.058
M462F	-0.254
G356V	-0.13
G356P	-0.0644
G356T	-0.197
R281M	-0.0676
Q132P	0.0126
Q132I	-0.0124
Q388G	-0.34
D96A	-0.536
R409I	-0.183
S487T	-0.0203
S487W	-0.00878
E45A	-0.024
L403R	-0.392
L403V	0.058
L403S	-0.428
L403A	-0.335
E90Q	-0.0474
P365D	0.00966
L257M	-0.192
L257A	-0.805
L169M	0.0203

Variant	8OG:A repair function score
H407W	-0.172
L184R	-1.2
F59N	-0.954
T260V	-0.0429
P442G	-0.171
Q182W	-0.114
Q323H	-0.0776
Q323F	-0.0491
Q323A	-0.0752
S197Q	-1.14
S197V	-0.973
L295Q	-0.0618
T116P	-0.326
V465D	-0.864
C278Q	-1.14
N366D	-0.00541
N366Q	0.152
N366W	-0.042
K127C	0.0938
K127F	-0.207
L83D	-1.02
S74G	-0.00226
S74M	0.00605
K481E	-0.00514

Variant	8OG:A repair function score
K481M	-0.00967
K481F	0.0166
A6I	-0.177
V242K	-0.949
H420C	-0.465
H420Q	-0.0915
E385S	-0.167
G171D	-0.296
G171N	-0.204
S480A	0.0216
A456S	-0.267
A456F	-0.61
L40A	0.139
A89Q	-0.0663
V104Q	-1.17
S226C	-0.132
E302Q	-0.207
E287Y	-0.00218
E275N	-0.00161
W374Q	-0.828
G155M	-0.629
G155H	-0.388
P437M	-0.528
P437A	-0.00344

Variant	8OG:A repair function score
P437N	-0.284
P264V	-0.0712
L95V	-0.00351
V327A	-0.205
V327W	-0.425
G161L	-1.01
P494G	-0.0242
A445E	-0.567
R398E	-0.407
V261W	-0.489
W381I	0.0761
A212V	-0.0975
A212E	0.196
S367A	-0.145
S367T	0.119
S138Q	-0.0419
S138T	0.0193
P488D	-0.00371
Q450M	-0.0723
P402D	0.516
P402Y	-0.122
V485Y	-0.0379
W321D	-0.53
W321L	-0.0977

Variant	8OG:A repair function score
R266K	0.00702
V142K	-0.84
V142Y	-0.971
Q473G	0.0222
L411W	-0.28
L411D	-0.751
D61F	-0.794
Q282L	-0.0273
Q282P	-0.526
G444T	-0.00488
R340W	-0.144
K463F	-0.101
K492F	-0.0038
F68G	-1.41
P339N	-0.17
P339V	-0.0967
P339T	-0.0529
L408C	0.18
R88G	-0.107
R69K	-0.298
E433C	-0.179
W235L	-0.406
W235T	-0.416
W103L	-0.377

Variant	8OG:A repair function score
W103F	-0.399
A334H	0.0495
A238N	-0.887
F453S	-0.421
T406Q	-0.294
R175E	0.0279
L149K	-1.17
L149A	-0.323
Y428W	0.228
Y428Q	-1.2
E319W	-0.0166
V414E	-0.742
Q521C	0.00296
I359F	0.0413
L234R	-1.01
S292Y	0.00788
V427N	-1.15
P331L	-0.609
Q144A	-0.134
K337C	-0.225
R81H	-0.3
S105W	-0.677
S515G	-0.000426
P174V	-0.797

Variant	8OG:A repair function score
P174T	-0.922
P244Y	-0.542
V166N	-0.124
V166W	0.0741
V166Q	-0.0914
Y100Q	-1.23
C489W	0.0227
R364D	-0.614
G258D	-1.04
S384F	0.0338
Q271D	-0.0548
Q271A	0.0211
Q271G	-0.0498
T424Y	-0.181
L315N	-0.209
Y469A	-0.0759
D224I	-0.934
D224V	-0.988
V362E	-0.932
S55T	0.00523
Q181G	-0.165
V379C	-0.214
L361H	-1.22
L361D	-1.06

Variant	8OG:A repair function score
L145V	-0.0541
Q110H	-0.0864
A51E	0.0222
E285I	-0.0117
K464R	-0.123
L72D	-1.11
T455A	-0.141
T455L	-0.171
V218R	-1.03
V218F	-0.436
S343N	-0.0331
P352Y	-0.175
G148L	-1.31
R336C	-0.0115
C272V	-1.12
E452Y	-0.442
G70I	-0.00774
L158H	-0.935
F250L	-0.595
R217A	-1.02
R217M	-0.936
G475F	-0.00573
